The target in this test is FITC-labeled BMF peptide (FITC-…). Put plainly: fluorescence polarisation.

Chain of 6xHis-tagged LC8 (DYNLL2) (Q96FJ2 whole entry): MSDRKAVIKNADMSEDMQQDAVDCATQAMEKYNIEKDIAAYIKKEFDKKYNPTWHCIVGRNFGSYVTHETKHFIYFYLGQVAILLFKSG

For “6xHis-tagged LC8 (DYNLL2) (from UniProt Q96FJ2 1-89) (natural protein)”, the LC8 concentration at 80% saturation of the labeled BMF peptide was found to be 12 µM.

Source of the values: article doi:10.1101/2023.09.15.557927.
